Data published in patent US20260115250A1 (published 2026).
Changes are numbered by the printed parent chain.

B1: T-117 (peptide)
peptide: RSGADALESALKELKRFIREWTLGQSTEELRVRLASHLRKLRKRLLRDADDLQKRLAVYQA
B2: T-116 (peptide)
peptide: DAWERFRALFKELADYFRLGQSTEELRVRLASHLRKLRKRLLRDADDLQKRLAVYQA
B3: T-118 (peptide)
peptide: LVARLLKELTAAMARLGRDAEDIRGNLFQYFDEVWAMLGQSTEELRVRLASHLRKLRKRLLRDADDLQKRLAVYQA
B4: T-112 (peptide)
peptide: YKDFGERVERALGRQLEMLGQSTEELRVRLASHLRKLRKRLLRDADDLQKRLAVYQA
B5: T-114 (peptide)
peptide: B4 peptide with Y1L, E9A, G13R, R14E, L16F, M18D
B6: T-113 (peptide)
peptide: B4 peptide with Y1W, G13R, R14E, L16F, M18D
B7: T-115 (peptide)
peptide: DHINKVQRKVTHEIERLFLGQSTEELRVRLASHLRKLRKRLLRDADDLQKRLAVYQA
B8: T-069 (peptide)
peptide: VRGRLVQYRGEVQAMLGQSTEELRVRLASHLRKLRKRLLRDADDLQKRLAVYQA
B9: T-068 (peptide)
peptide: MEDVRGRLVQYRGEVQAMLGQSTEELRVRLASHLRKLRKRLLRDADDLQKRLAVYQA
B10: LDLR (receptor)
chain: not shown
B11: T-120 (peptide)
peptide: DVKRLLKELTEAMAELARKAEDIRGNLDQYFRKVFAMLGQSTEELRVRLASHLRKLRKRLLRDADDLQKRLAVYQA

These binders were tested against T1, Low Density Lipoprotein Receptor (LDLR), recombinant (UniProt P01130 22-788) (assay: SPR; HBS + 0.005% P20, DMPC complex).

Point of comparison: B2, Kd 0.28 µM. Against it:
- HLRKLRKRLLRSLVSQYRQTVTDYGKDL [T-110] — 4.3-fold higher, 1.2 µM
- B1 — 28-fold lower, 0.01 µM
- HLRKLRKRLLRSLVSQYFQTVTDYGKDL [T-109] — 3.8-fold higher, 1.05 µM
- HLRKLVKRLLRSLVSQYRQTVTDYGEDL [T-111] — 1.6-fold higher, 0.46 µM
- B3 — 340-fold higher, 94.3 µM
- B4 — 1.6-fold lower, 0.17 µM
- B5 — 1.6-fold lower, 0.17 µM
- B6 — within 1.5-fold, 0.29 µM
- B7 — within 1.5-fold, 0.21 µM
- EELRVRLASHLRKLRKRLLR [T-074] — 280-fold higher, 77 µM

Target: T1, Low Density Lipoprotein Receptor …
Test: SPR; HBS + 0.005% P20, DMPC complex
Remark: another data set of the same source

Point of comparison: LARHLRKLRKRLARSLVSQYFQTVTDYGKDLM [T-066], Kd 0.11 µM. Against it:
- B8 — 5.1-fold higher, 0.56 µM
- LVQYRGEVQAMLGQSTEELRVRLASHLRKLRKRLLRDADDLQKRLAVYQA [T-070] — 6.2-fold higher, 0.68 µM
- LASHLRKLRKRLLRDGDKLQDRLAEYQARAKEAFDR [T-048] — 6100-fold higher, 666 µM
- HLRKLRKRLLRDGDKLQKRLAEYQARAKEAFDR [T-052] — 1800-fold higher, 202 µM
- HLRKLRKRLLRDGDKLYDRLAEYYARAKEAFDR [T-062] — 480-fold higher, 52.9 µM
- LASHLRKLRKRLLRDADDLQKRLAVYQA [T-044] — 11000-fold higher, 1160 µM
- B9 — 6-fold higher, 0.66 µM
- LASHLRKLRKRLLRDADDLQKRLAVYQAGAREGAER [T-046] — 510-fold higher, 56.3 µM
- LASHLRKLRKRLLRSLVSQYFQTVTDYGKDLM [T-065] — 1.6-fold higher, 0.18 µM

Each binder was assayed against T1, Low Density Lipoprotein Receptor … (assay: SPR; HBS + 0.005% P20, peptide).

Point of comparison: LASHLRKLRKRLLRDADDLQKRLAVYQAGAREGAER [T-046], Kd 6.72 µM. Against it:
- B8 — 6-fold lower, 1.12 µM
- LVQYRGEVQAMLGQSTEELRVRLASHLRKLRKRLLRDADDLQKRLAVYQA [T-070] — 4.9-fold lower, 1.38 µM
- HLRKLRKRLLRDGDKLQKRLAEYQARAKEAFDR [T-052] — 5.7-fold lower, 1.18 µM
- HLRKLVKRLFRDGDKLQDRLAEYQARAKEAFDR [T-059] — within 1.5-fold, 7.72 µM
- HLRRLRRRLLRDGDKLQDRLAEYQARAKEAFDR [T-041] — 100-fold higher, 701 µM
- HLRKLRKRLLRDGDKLQDRLAEYQARAKEAFDR [T-040] — 130-fold higher, 882 µM
- HLRKLRKRLLRDGDKLYDRLAEYYARAKEAFDR [T-062] — within 1.5-fold, 9.36 µM
- B9 — 4.5-fold lower, 1.48 µM
- LARHLRKLRKRLARSLVSQYFQTVTDYGKDLM [T-066] — 3.3-fold lower, 2.06 µM
- LASHLRKLRKRLLRSLVSQYFQTVTDYGKDLM [T-065] — 6.3-fold lower, 1.07 µM

Each binder was assayed against T-077 (assay: SPR; HBS + 0.005% P20, DMPC complex).

B10 was tested, and the Kd was 189 µM.

These binders were tested against T-071 (assay: SPR; HBS + 0.005% P20, DMPC complex).

B10 gave a Kd of 348 µM.

Each binder was assayed against T1, Low Density Lipoprotein Receptor … (assay: SPR; HBS + 0.05% P20).

Point of comparison: LASHLRKLRKRLLRDGDKLQDRLAEYQARAKEAFDR [T-048], Kd 5.24 µM. Against it:
- B8 — 2.2-fold lower, 2.39 µM
- LARHLRKLRKRLARDGDKLQDRLAEYQARAKEAFDR [T-049] — 1.6-fold lower, 3.26 µM
- HLRKLRKRLLRSLVSQYRQTVTDYGKDL [T-110] — 4.6-fold lower, 1.15 µM
- HLRKLRKRLLRDGDKLQKRLAEYQARAKEAFDR [T-052] — 3-fold lower, 1.75 µM
- HLRKLVKRLFRDGDKLQDRLAEYQARAKEAFDR [T-059] — within 1.5-fold, 7.27 µM
- HLRRLRRRLLRDGDKLQDRLAEYQARAKEAFDR [T-041] — within 1.5-fold, 7.49 µM
- HLRKLRKRLLRDGDKLQDRLAEYQARAKEAFDR [T-040] — within 1.5-fold, 5.54 µM
- HLRKLRKRLLRDGDKLQDRLAEYQARAREAFDR [T-055] — within 1.5-fold, 5.09 µM
- HLRKLRKRLLRDGDKLYDRLAEYYARAKEAFDR [T-062] — 2.3-fold lower, 2.23 µM
- HLRKLRKRLLRDADDLQKRLAEYQARAKEAFDR [T-064] — within 1.5-fold, 6.81 µM
- LASHLRKLRKRLLRDADDLQKRLAVYQA [T-044] — 1.5-fold higher, 7.97 µM
- B1 — within 1.5-fold, 4.49 µM
- HLRKLRKRLLRSLVSQYFQTVTDYGKDL [T-109] — 4.4-fold lower, 1.2 µM
- B9 — 2.6-fold lower, 1.98 µM
- LASHLRKLRKRLLR [T-072] — within 1.5-fold, 4.85 µM
- HLRKLVKRLLRSLVSQYRQTVTDYGEDL [T-111] — 4.9-fold lower, 1.06 µM
- B2 — 4.3-fold lower, 1.21 µM
- B11 — 2.3-fold higher, 11.8 µM
- B3 — 1.9-fold lower, 2.72 µM
- B4 — 7.3-fold lower, 0.72 µM
- B5 — 4.1-fold lower, 1.27 µM
- B6 — 2.9-fold lower, 1.82 µM
- B7 — 1.9-fold lower, 2.81 µM
- LASHLRKLRKRLLRDADDLQKRLAVYQAGAREGAER [T-046] — within 1.5-fold, 3.56 µM
- LARHLRKLRKRLARDADDLQKRLAVYQAGAREGAER [T-047] — 1.6-fold lower, 3.26 µM
- LARHLRKLRKRLARSLVSQYFQTVTDYGKDLM [T-066] — 2.2-fold lower, 2.42 µM
- LASHLRKLRKRLLRSLVSQYFQTVTDYGKDLM [T-065] — 7-fold lower, 0.75 µM
- EELRVRLASHLRKLRKRLLR [T-074] — 2.2-fold lower, 2.43 µM

Target: T1, Low Density Lipoprotein Receptor …
Test: SPR; HBS + 0.005% P20, peptide
Remark: another data set of the same source

Point of comparison: B5, Kd 2.7 µM. Against it:
- HLRKLRKRLLRSLVSQYRQTVTDYGKDL [T-110] — within 1.5-fold, 2.97 µM
- RSGADALESALKELKRFIREWT [T-101] — 4.3-fold higher, 11.7 µM
- B1 — 6.8-fold lower, 0.4 µM
- HLRKLRKRLLRSLVSQYFQTVTDYGKDL [T-109] — within 1.5-fold, 3.15 µM
- LASHLRKLRKRLLR [T-072] — 3.1-fold higher, 8.27 µM
- HLRKLVKRLLRSLVSQYRQTVTDYGEDL [T-111] — within 1.5-fold, 2.98 µM
- B2 — 1.7-fold higher, 4.53 µM
- DAWERFRALFKELADYFR [T-087] — within 1.5-fold, 2.27 µM
- B11 — 3.4-fold lower, 0.8 µM
- B3 — 8.4-fold lower, 0.32 µM
- B4 — 2.4-fold lower, 1.14 µM
- B6 — 1.9-fold lower, 1.44 µM
- B7 — 6.4-fold lower, 0.42 µM
- EELRVRLASHLRKLRKRLLR [T-074] — within 1.5-fold, 2.37 µM

What follows are binders tested against T-050 (assay: SPR; HBS + 0.05% P20).

B10 showed a Kd of 528 µM.

These binders were tested against T-060 (assay: SPR; HBS + 0.05% P20).

In the case of B10, the Kd is reported as 150 µM.

Each binder was assayed against T-053 (assay: SPR; HBS + 0.05% P20).

With B10 the Kd was 122 µM.

What follows are binders tested against T-119 (assay: SPR; HBS + 0.005% P20, peptide).

B10 gave a Kd of 2.31 µM.
